Measurements reported in patent publication US20140178332A1 (published 2014).

Legend:
[1] = target: T1, recombinant purified human IL-12 p70 (human, UniProt P29459 23-219); assay: competition ELISA on coated human IL-12, competitor of 0.8 µg/ml biotinylated 8E1, Expt. 1
T1 construct: Disulfide-linked heterodimer of p35 and p40; also called hIL-12; Hu IL-12
T1 sequence 1: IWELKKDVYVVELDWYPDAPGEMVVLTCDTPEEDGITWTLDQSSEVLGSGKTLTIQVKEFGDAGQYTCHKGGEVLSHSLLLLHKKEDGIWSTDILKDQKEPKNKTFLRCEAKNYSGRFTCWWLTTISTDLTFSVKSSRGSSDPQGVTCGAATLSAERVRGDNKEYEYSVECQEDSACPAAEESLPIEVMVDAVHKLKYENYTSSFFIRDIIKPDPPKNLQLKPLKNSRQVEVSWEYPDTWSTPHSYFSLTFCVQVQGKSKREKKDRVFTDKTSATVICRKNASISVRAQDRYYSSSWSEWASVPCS
T1 sequence 2: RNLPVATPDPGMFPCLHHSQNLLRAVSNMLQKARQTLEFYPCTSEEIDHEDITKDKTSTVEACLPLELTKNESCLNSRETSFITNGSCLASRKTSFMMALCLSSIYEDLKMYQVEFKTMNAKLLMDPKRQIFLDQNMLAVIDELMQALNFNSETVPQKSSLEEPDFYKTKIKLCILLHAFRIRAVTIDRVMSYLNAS
Protocol: (§1) MaxiSorp ELISA plates (Nalge Nunc International) were coated overnight at 4° C. with 100 μl/well of 1.0 μg/ml human IL-12 in 0.2 M sodium carbonate-bicarbonate buffer, pH 9.4, washed with Wash Buffer (PBS containing 0.1% Tween 20), and blocked for 1 hr at room temperature with 300 μl/well of SuperBlock Blocking Buffer in TBS (Pierce Chemical Company). […] As isotype controls, 100 μl/well of 100 μg/ml mouse IgG 1/κ (MuFd79) or humanized IgG1/κ (HuFd79) monoclonal antibodies in ELISA buffer was used. As a no-competitor control, 100 μl/well of ELISA Buffer was used. After incubating the plates for 1 hr at room temperature, and washing with Wash Buffer, bound antibodies were detected using 100 μl/well of 1 μg/ml HRP-conjugated streptavidin (Pierce Chemical Company) in ELISA buffer. After incubating for 1 hr at room temperature, and washing with Wash Buffer, color development was performed by adding 100 μl/well of ABTS Peroxidase Substrate/Peroxidase Solution B (KPL, Inc.). After incubating for 5 min at room temperature, color development was stopped by adding 50 μl/well of 2% oxalic acid. Absorbance was read at 415 nm.
(§2) The affinity of 8E1.4, 8E1.5 and 8E1.6 to human IL-12 was analyzed by competition ELISA as described above.

[2] = target: T1, recombinant purified human IL-12 p70; assay: cell-based or functional assay
[3] = target: T2, recombinant purified cyno IL-12 p70 (cynomolgus monkey); assay: cell-based or functional assay
T2 chain 1: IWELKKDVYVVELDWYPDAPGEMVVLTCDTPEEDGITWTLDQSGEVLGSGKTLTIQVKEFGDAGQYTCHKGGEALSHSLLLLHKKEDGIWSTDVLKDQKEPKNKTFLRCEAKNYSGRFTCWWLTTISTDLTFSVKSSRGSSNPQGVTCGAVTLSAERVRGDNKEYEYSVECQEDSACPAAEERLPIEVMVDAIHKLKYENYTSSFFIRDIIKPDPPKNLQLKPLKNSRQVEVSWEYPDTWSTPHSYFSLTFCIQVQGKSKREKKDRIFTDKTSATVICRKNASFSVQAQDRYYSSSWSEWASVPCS
T2 chain 2: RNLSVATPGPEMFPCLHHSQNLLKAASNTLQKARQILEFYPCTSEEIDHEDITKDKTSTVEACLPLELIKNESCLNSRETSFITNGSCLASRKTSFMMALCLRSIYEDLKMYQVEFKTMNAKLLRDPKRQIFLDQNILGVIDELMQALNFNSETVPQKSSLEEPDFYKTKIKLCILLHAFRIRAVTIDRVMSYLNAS

[4] = target: T1, recombinant purified human IL-12 p70; assay: competition ELISA on coated human IL-12, competitor of 0.8 µg/ml biotinylated 8E1, Expt. 2
Protocol: MaxiSorp ELISA plates (Nalge Nunc International) were coated overnight at 4° C. with 100 μl/well of 1.0 μg/ml human IL-12 in 0.2 M sodium carbonate-bicarbonate buffer, pH 9.4, washed with Wash Buffer (PBS containing 0.1% Tween 20), and blocked for 1 hr at room temperature with 300 μl/well of SuperBlock Blocking Buffer in TBS (Pierce Chemical Company). After washing with Wash Buffer, a mixture of biotinylated 8E 1 ([…] final concentration) and competitor antibody (8E1 or 8E1.4 or 8E1.5 or 8E1.6) starting at 100 μg/ml final concentration and serially diluted 3-fold) in 100 μl/well of ELISA buffer was added in duplicate. As isotype controls, 100 μl/well of 100 μg/ml mouse IgG 1/κ (MuFd79) or humanized IgG1/κ (HuFd79) monoclonal antibodies in ELISA buffer was used. As a no-competitor control, 100 μl/well of ELISA Buffer was used. After incubating the plates for 1 hr at room temperature, and washing with Wash Buffer, bound antibodies were detected using 100 μl/well of 1 μg/ml HRP-conjugated streptavidin (Pierce Chemical Company) in ELISA buffer. After incubating for 1 hr at room temperature, and washing with Wash Buffer, color development was performed by adding 100 μl/well of ABTS Peroxidase Substrate/Peroxidase Solution B (KPL, Inc.). […] Absorbance was read at 415 nm.
as §2

[5] = target: T1, recombinant purified human IL-12 p70; assay: competition ELISA on coated human IL-12, competitor of 0.8 µg/ml biotinylated 8E1, average
Protocol: as §1, §2

B1: murine anti-human IL-12p40 monoclonal antibody 8E1 (antibody, V domains shown)
VH: EVKLVESGGGLVQPGGSRKLSCAASGFTFSDYGMVWVRQAPGKGLEWVASISSGSSNIYYADTVKGRFTISRDDPNNTLFLQMRSLRSEDTAMYYCARNPYWGQGTTLTVSS
VL: DIVMTQSQKFMSTSVGDRVSVTCKASQNVGTNVAWYQQKPGQSPKGLIYSASHRYSGVPDRFAGSGSGTDFTLTISNVQSEDLAEYFCQQYNSYPLTFGGGTKLELKR
notes: Murine mAb; also called biotinylated 8E1
IC50 [1]: 2.63 µg/mL
Average IC50 (nM) Human IL-12, PHA blast IFN-γ assay [2]: 0.19 nM
Average IC50 (nM) Cyno IL-12, PHA blast IFN-γ assay [3]: 0.18 nM
IC50 [4]: 2.78 µg/mL
IC50 [5]: 2.56 µg/mL
